The target of the assay is T1, SARS-CoV-2 S_(fm2P) (SARS-CoV-2, original (reference) …, 682RRAR685 → 682GSAG685 | 986KV987 → 986PP987).
T1 construct: also called ectodomain of the SARS-CoV-2 S protein; SARS-CoV-2 S protein
Nature of the assay: cryo-EM structure. As to conditions: both partners purified.

B1: RBD-chAb-45 (antibody, V domains shown)
VH: EVQLQQSGPELVKPGASVKISCKTSGYTFTEYTIYWVKQSLGKSLEWIGGNNPNNDDTTYKQFFKGKATLTVDKSSSTAYMELRSLTSEDSAVYYCARDGYPYYYALDFWGQGTSVTVSS
VL: DIVMTQSQKFMSTSVGDRVSVTCKSSQNVGTNVAWYQQKPGQSPKALIYSASYRYSGVPDHFTGSGSGTDFTLTISNVQSADLAEYFCQQYNNYPWTFGGGTKLEIK
notes: also called S-chAb-45 (in complex with S); source: Expi-293 cells, co-transfected, purified (protein G column)
What is called stoichiometry N is the number of molecules, sites or subunits per partner or assembly. With B1, the “stoichiometry N” value is 3 chAb (Fab) per S trimer.

B2: RBD-chAb-25 (antibody, V domains shown)
VH: EVQLEESGGGLVKPGGSLKLSCAASGFTFSSYTMSWVRQSPEKRLEWVAEISSGGTYTNYPDTATGRFTISRDNAKNTLYLEMSSLRSEDTAMYYCANFGNYEEIAYWGQGTLVTVSA
VL: QIVLTQSPAIMSVSLGERVTMTCTASSSVSSSYLHWYQQKPGSSPKLWIYSTSNLASGVPARFSGSGSGTSYSLTISSMEAEDAATYYCHQYHRSPYTFGGGTKLEIK
notes: also called S-chAb-25 (in complex with S); source: Expi-293 cells, co-transfected, purified (protein G column)
As for B2, the “stoichiometry N” value is 3 chAb (Fab) per S trimer.

The record behind these values is publication PMC8530329 (PLoS Pathogens, 2021).
